Assay results published in patent publication US20080075726A1 (VACCINEX, published 2008).

Key:
[1] = biological target: T1, natural monkey IL-6 from rhesus monkey serum (rhesus monkey, UniProt P51494 28-212, limits assumed); test: competition ELISA (U-Cytech Monkey IL-6 kit): rhesus monkey serum (plasma on the sheet) at dilutions 1/10 to 1/640 with the antibody at 5 µg/ml as competitor of the kit's coated IL-6 antibody; a lower OD than the sample '0' means binding
T1 sequence (looked up): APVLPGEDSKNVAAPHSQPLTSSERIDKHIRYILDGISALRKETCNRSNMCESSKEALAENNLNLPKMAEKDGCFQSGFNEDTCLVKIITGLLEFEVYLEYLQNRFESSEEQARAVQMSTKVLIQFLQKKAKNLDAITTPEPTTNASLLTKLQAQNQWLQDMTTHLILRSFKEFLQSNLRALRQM

recombinant human IL-6 [2] = biological target: T2, recombinant human IL-6 (human, UniProt P05231 30-212, limits assumed); test: competition ELISA, rhIL-6 in solution against captured IL-6
T2 construct: also called rhIL6; human recombinant IL-6
Method: (§1) Briefly, plates were coated with 2 μg/ml of mBE4 capture antibody in coating buffer, 100 μl per well. The plates were incubated overnight. Next, the plates were washed 3 times and tapped dry. The plates were then blocked with 200 μl per well of Assay Diluent or 10% FBS in PBS and incubated for 2 hours. […] The reaction was left at RT for 3-4 hours. […] Next, the plates were washed 3 times and tapped dry. […] The plates were incubated for 1-2 hours. The plates were washed 3 times and tapped dry. […] The plates were incubated at RT for 2 hours. (Therefore, any unbound mAb at this point will be measured by ELISA). Plates were then washed 5 times and tapped dry. 100 μl of detection Ab goat anti-human IgG F(ab)′2-HRP (Jackson lab) was added at 1:20,000 dilutions or 1:40,000 dilutions (depending on lot) and the plates were incubated for 1-2 hours. The plates were washed 7 times and tapped dry. Next, the Developer Substrate (equal parts of each reagent in the kit) was pre-mixed and allowed to warm to room temperature before use. Then 100 μl of Developer was added to each well. The plates were allowed to develop for 15 minutes un-sealed in a drawer in the dark. Finally, developing was stopped by adding 100 μl of 2N H₂SO₄ to each well and plates were read as Endpoint at 450 nm-[…].

bovine serum albumin = bovine serum albumin (bovine, UniProt P02769 25-607); test: ELISA on a panel of control antigens (data not shown)
Sequence of bovine serum albumin (P02769 25-607 limits assumed): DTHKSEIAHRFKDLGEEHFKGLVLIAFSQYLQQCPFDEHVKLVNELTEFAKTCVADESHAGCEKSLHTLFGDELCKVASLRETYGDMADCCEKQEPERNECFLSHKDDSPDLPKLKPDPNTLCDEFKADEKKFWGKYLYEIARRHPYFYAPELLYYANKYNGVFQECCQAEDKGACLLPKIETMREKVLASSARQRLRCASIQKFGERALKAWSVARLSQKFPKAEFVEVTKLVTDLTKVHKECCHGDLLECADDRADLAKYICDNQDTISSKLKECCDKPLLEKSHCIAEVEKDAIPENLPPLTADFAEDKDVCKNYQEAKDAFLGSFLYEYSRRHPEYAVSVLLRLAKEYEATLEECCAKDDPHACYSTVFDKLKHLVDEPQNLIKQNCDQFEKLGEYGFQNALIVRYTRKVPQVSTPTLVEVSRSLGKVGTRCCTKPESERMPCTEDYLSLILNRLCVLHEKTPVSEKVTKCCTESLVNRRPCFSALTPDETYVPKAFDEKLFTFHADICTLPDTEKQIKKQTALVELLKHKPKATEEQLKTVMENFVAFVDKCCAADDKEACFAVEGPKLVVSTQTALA

human insulin = human insulin (human, UniProt P01308 25-54; P01308 90-110, limits assumed); test: as above
Sequence of human insulin (P01308 25-54 limits assumed, chain 1 of 2): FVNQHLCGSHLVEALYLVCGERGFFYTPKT
Sequence of human insulin (P01308 90-110 limits assumed, chain 2 of 2): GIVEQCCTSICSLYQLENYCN

human serum albumin = human serum albumin (human, UniProt P02768 25-609); test: as above
Sequence of human serum albumin (P02768 25-609 limits assumed): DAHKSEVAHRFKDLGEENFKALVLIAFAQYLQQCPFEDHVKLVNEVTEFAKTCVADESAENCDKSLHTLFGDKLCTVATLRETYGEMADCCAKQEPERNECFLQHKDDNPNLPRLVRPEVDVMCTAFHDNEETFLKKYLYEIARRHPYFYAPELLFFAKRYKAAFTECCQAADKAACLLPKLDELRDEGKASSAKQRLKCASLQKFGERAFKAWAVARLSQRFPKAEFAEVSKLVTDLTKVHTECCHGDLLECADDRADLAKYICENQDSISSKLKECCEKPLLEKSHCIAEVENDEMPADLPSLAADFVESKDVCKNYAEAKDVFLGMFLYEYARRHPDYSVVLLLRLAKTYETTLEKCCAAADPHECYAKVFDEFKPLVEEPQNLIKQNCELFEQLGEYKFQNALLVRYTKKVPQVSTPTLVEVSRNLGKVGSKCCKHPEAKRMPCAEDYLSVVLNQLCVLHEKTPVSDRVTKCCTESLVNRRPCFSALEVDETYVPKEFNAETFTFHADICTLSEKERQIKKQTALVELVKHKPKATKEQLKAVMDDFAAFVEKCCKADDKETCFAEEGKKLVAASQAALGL

recombinant murine IL-6 = biological target: T3, recombinant murine IL-6 (murine, UniProt P08505 25-211); test: ELISA on coated murine IL-6; human mAbs detected with rabbit anti-human IgG-HRP; series 100, 50, 25, 12.5 ng/ml (antibody by paragraph 42; headed mIL-6 (ng/ml) on the sheet)
T3 sequence (looked up): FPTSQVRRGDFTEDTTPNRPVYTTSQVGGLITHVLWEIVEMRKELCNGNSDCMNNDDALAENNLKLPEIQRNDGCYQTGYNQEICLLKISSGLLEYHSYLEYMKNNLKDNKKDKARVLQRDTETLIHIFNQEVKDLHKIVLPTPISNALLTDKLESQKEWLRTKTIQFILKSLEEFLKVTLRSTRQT
Method: (§2) For sample “0,” no antibody was added. […] Each column represents a mean of two experiments +/− standard deviation.
(§3) For experiments using human monoclonal antibodies, IgG1 Kappa (human myeloma IgG1; Sigma-Aldrich Co.) mAb was used as a control. Rabbit anti-human IgG-HRP (Dako) was added at a dilution of 1/10,000 at 100 μl/well for detection of mAbs. […] For pAbs, Streptavidin-HRP (Prozyme) was added for detection at 100 μl/well. Antibodies were applied at concentrations of 12.5, 25, 50, and 100 ng/ml.

recombinant rat IL-6 = biological target: T4, recombinant rat IL-6 (rat, UniProt P20607 25-211); test: ELISA on coated rat IL-6; human mAbs detected with rabbit anti-human IgG-HRP; series 100, 50, 25, 12.5 ng/ml (antibody by paragraph 42; headed mIL-6 (ng/ml) on the sheet)
T4 sequence (looked up): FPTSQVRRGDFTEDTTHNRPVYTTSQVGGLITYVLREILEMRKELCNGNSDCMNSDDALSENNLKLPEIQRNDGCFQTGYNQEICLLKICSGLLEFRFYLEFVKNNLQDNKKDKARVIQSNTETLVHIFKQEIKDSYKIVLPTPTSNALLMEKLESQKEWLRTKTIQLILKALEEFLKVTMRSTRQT
Method: as §2, §3

recombinant human IL-6 [3] = biological target: T2, recombinant human IL-6; test: competition ELISA, rhIL-6 in solution against captured IL-6 (Affinity (nM) by IC50 ELISA)
Method: as §1
(§4) IC50 ELISA was performed as described above. Affinity analysis by Biacore was performed according to manufacturer protocols using HBS-EP buffer (Biacore AB).

recombinant human IL-6 [4] = biological target: T2, recombinant human IL-6; test: Biacore 2000, mAb captured on anti-human IgG CM5 chip, human IL-6 40-1.25 nM injected
Method: as §4

binding result [1]: binds | IC50 (recombinant human IL-6 [2]): 0.026 nM | binding result (bovine serum albumin): no binding | binding result (human insulin): no binding | binding result (human serum albumin): no binding | binding result (recombinant rat IL-6): no binding (tested: 100 ng/ml) | IC50 (recombinant human IL-6 [3]): 0.026 nM | Kd (recombinant human IL-6 [4]): 0.071 nM
B1: mAb 1339 (antibody, human IgG1, kappa, V domains shown)
VH: QVTLKESGPTLVKPTQTLTLTCSFSGFSLSTSGVGVGWVRQPPGKALEWLAFIWWDDDKYYSPSLESRLTITKDTSKNQVVLTMTNMDPVDTATYYCARSADDYLYYSFDTWGQGTLVTVSS
VL: DIQMTQSPSSLSAFVGDGVTMTCWASQSINDYLNWYHQRPGEAPELLVFAASNLQIGVPSRFRGSGSETYFTLTINSLQPEDSGTYFCQNAHSFPLTFGGGTKLEIKR
binding result (recombinant murine IL-6): no binding (tested: 100 ng/ml (Ab: 0.1 µg/ml in the title))
